Assay results from patent publication CN114146174A (HEADA BIOPHARMACEUTICAL SUZHOU CO LTD, dated 2022).

Key:
人PD-L1抗原(购自Promega) = target: T1, 人PD-L1抗原(购自Promega) (human, UniProt Q9NZQ7 19-238, limits assumed); experiment: direct ELISA on coated human PD-L1 antigen; relative binding activity after 1 month at 40℃±2℃, pH 5.0-7.0 samples
T1 construct: Bought antigen coated on the ELISA plate; also called human PD-L1; CD274

人OX40抗原(购自Sino) = target: T2, 人OX40抗原(购自Sino) (human, UniProt P43489 29-216, limits assumed); experiment: direct ELISA on coated human OX40 antigen; relative binding activity after 1 month at 40℃±2℃, pH 5.0-7.0 samples
T2 construct: Bought antigen coated on the ELISA plate; also called human OX40; CD134
T2 sequence (looked up): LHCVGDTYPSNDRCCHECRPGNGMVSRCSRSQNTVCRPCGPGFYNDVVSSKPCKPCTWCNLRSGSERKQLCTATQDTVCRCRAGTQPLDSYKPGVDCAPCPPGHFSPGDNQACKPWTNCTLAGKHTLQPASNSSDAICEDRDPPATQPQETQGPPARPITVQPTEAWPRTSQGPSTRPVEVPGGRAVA

T1 sequence (Q9NZQ7 19-238 limits assumed): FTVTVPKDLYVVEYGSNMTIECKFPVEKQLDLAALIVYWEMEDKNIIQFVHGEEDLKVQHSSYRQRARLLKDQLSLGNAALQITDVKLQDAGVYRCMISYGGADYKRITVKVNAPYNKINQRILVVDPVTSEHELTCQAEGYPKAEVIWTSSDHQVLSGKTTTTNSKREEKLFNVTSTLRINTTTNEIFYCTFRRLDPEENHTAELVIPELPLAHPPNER

- binding result (人PD-L1抗原(购自Promega)): binds
- binding result (人OX40抗原(购自Sino)): binds
B1: 抗PD-L1/OX40双特异性抗体 (bispecific antibody, human IgG2, kappa)
heavy: QVQLVQSGAEVKKPGASVKVSCKASGYTFTSYYMHWVRQAPGQGLEWMGIINPSGGSTSYAQKFQGRVTMTRDTSTSTVYMELSSLRSEDTAVYYCARDHASSSWYTTHLDLWGRGTLVTVSSASTKGPSVFPLAPCSRSTSESTAALGCLVKDYFPEPVTVSWNSGALTSGVHTFPAVLQSSGLYSLSSVVTVPSSNFGTQTYTCNVDHKPSNTKVDKTVERKCCVECPPCPAPPVAGPSVFLFPPKPKDTLMISRTPEVTCVVVDVSHEDPEVQFNWYVDGVEVHNAKTKPREEQFNSTFRVVSVLTVVHQDWLNGKEYKCKVSNKGLPAPIEKTISKTKGQPREPQVYTLPPSREEMTKNQVSLTCLVKGFYPSDIAVEWESNGQPENNYKTTPPMLDSDGSFFLYSKLTVDKSRWQQGNVFSCSVMHEALHNHYTQKSLSLSPGGGGGSGGGGSQVQLQESGGGLVQPGGSLRLSCAASAYTISRNSMGWFRQAPGKGLEGVAAIESDGSTSYSDSVKGRFTISLDNSKNTLYLEMNSLRAEDTAVYYCAAPKVGLGPRTALGHLAFMTLPALNYWGQGTLVTVSS
light: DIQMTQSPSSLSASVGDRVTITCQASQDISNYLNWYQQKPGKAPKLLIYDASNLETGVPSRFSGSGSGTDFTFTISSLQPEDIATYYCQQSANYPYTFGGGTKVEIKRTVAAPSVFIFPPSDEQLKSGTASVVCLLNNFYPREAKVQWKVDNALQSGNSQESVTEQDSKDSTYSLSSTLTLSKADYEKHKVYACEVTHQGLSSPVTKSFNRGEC
notes: also called 重组抗肿瘤坏死因子受体超家族成员4(OX40)和抗程序性死亡配体1(PD-L1)双特异性抗体; anti-PD-L1/OX40 bispecific antibody
